Experimental data taken from US20210332120A1 (JOINT STOCK COMPANY BIOCAD, published 2021).

Tests used:
human IL-17B = biological target: T1, human IL-17B (human, UniProt Q9UHF5 21-180); experiment: ELISA, plate coated with human IL-17B, anti-Fab HRP detection
T1 sequence (looked up): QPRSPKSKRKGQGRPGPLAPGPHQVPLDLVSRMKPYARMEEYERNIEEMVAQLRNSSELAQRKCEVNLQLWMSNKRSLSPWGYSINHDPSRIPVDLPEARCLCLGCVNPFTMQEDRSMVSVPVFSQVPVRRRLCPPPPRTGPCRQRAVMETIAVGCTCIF
Protocol: (§1) For the binding analysis, the wells of ELISA plates (medium binding from Greiner bio one) were individually coated with 50 μl of human IL-17A, IL-17B, IL-17C, IL-17D, IL-17E, IL-17F, or IL-17A/F (R&D Systems) at a concentration of 1 μg/ml (in 1× coating carbonate buffer), hermetically sealed, and incubated overnight at 4 C. All subsequent steps were performed by standard EIA protocol. To block non-specific binding blocking, buffer BB was added (200 μl of 0.5% skim milk in PBS). Plates were incubated on a shaker for one hour at room temperature. After washes with PBS-Tween, 50 μl of the test antibodies were added to each well at a concentration of 5 μg/ml in PBS-Tween. Plates were again incubated with shaking for one hour at room temperature, then each well of the plates was washed three times with PBS-Tween buffer. After washing, human anti-Fab HRP-conjugated secondary antibody (from Pierce-ThermoScientific) was added (50 μl/well) at a ratio of 1:5000 in PBS-Tween. Plates were shaken on a rotary shaker (50 min, room temperature) and washed three times with PBS-Tween buffer, as described above. […] The color signal was measured at 450 nm using a suitable plate-reader (Tecan-Sunrise; Tecan).

guinea pig TNFα = biological target: T2, guinea pig TNFα (guinea pig, UniProt P51435 80-234, limits assumed); experiment: ELISA, plate coated with guinea pig TNFα, anti-Fab HRP detection
T2 sequence (looked up): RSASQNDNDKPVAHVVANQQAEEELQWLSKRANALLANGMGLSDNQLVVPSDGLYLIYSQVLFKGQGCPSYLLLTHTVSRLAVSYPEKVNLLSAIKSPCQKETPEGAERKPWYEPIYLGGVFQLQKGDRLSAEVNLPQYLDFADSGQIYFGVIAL

human IL-17F = biological target: T3, human IL-17F (human, UniProt Q96PD4 31-163); experiment: BLI OctetRED96
T3 construct: also called IL-17F human
T3 sequence (looked up): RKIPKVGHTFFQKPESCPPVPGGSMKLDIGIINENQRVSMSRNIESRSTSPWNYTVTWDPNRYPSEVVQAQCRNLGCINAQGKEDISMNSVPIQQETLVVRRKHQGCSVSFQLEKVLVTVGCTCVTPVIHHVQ

human IL-17E = biological target: T4, human IL-17E (human, UniProt Q9H293 33-177); experiment: ELISA, plate coated with human IL-17E, anti-Fab HRP detection
T4 sequence (looked up): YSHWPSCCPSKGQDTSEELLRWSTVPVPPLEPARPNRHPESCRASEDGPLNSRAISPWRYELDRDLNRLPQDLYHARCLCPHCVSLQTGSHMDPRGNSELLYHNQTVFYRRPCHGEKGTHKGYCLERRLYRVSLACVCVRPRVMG
Protocol: as §1

human IL-17A [1] = biological target: T5, human IL-17A (human, UniProt Q16552 20-155, limits assumed); experiment: SPR Biacore T200; ligand amine-coupled, antibody 1 to 25 µg/ml, Heterogeneous Ligand model; * below the threshold sensitivity of the device
T5 construct: Recombinant preparations from several makers were used; also called IL-17A human; IL-17A-biotin
T5 sequence (Q16552 20-155 limits assumed): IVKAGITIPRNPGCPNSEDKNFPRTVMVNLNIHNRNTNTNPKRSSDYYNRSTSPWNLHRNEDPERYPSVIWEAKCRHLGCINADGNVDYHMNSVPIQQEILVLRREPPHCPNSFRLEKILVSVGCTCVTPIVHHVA
Protocol: (§2) The analysis was conducted using the Sandwich approach using IL-17A and TNFα preparations produced by Sino Biologics. After activation of the chips, individual ligand was nonspecifically (by NH2 groups) immobilized on the biosensor surface at a concentration of 20 μg/ml. Loading of the antibody was then performed at a concentration from 1 to 25 μg/ml. Thereafter, the sensors were immersed in the running buffer for the complex dissociation step. The flow rate was 10 μl/min.
(§3) Analysis of the obtained data was performed using BIA Evolution 3.1 software and the Heterogeneous Ligand model.

rabbit TNFα = biological target: T6, rabbit TNFα (rabbit, UniProt P04924 80-235, limits assumed); experiment: ELISA, plate coated with rabbit TNFα, anti-Fab HRP detection
T6 sequence (looked up): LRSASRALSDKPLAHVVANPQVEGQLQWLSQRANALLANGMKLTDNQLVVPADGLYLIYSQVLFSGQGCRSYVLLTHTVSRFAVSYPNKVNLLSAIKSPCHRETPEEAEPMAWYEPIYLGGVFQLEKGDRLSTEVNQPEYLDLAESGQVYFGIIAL

cynomolgus IL-17A = biological target: T7, cynomolgus IL-17A (cyno, UniProt A0A2K5TTB0 24-155); experiment: SPR Biacore T200; ligand amine-coupled, antibody 1 to 25 µg/ml, Heterogeneous Ligand model
T7 construct: also called IL-17A cyno
T7 sequence (A0A2K5TTB0 entry or part of it): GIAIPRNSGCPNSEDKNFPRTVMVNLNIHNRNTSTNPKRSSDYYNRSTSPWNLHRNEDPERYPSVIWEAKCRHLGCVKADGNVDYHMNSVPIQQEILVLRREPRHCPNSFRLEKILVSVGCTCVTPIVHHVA
Protocol: as §2, §3

TNFα multta = biological target: T8, TNFα multta (multta (so in the source); primate), UniProt P48094 77-233); experiment: as above
T8 construct: The species is printed only as 'multta'; read as Macaca mulatta
T8 sequence (P48094 77-233 limits assumed): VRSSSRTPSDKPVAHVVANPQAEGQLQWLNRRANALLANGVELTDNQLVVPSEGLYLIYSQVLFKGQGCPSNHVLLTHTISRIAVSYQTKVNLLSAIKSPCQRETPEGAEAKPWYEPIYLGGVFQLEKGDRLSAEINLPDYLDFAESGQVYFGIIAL
Protocol: as §2, §3

human IL-17C = biological target: T9, human IL-17C (human, UniProt Q9P0M4 19-197); experiment: ELISA, plate coated with human IL-17C, anti-Fab HRP detection
T9 sequence (looked up): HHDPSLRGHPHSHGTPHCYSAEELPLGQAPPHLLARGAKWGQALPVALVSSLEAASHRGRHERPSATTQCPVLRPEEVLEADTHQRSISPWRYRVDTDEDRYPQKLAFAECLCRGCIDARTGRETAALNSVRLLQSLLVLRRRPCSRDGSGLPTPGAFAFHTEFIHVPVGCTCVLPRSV
Protocol: as §1

human IL-17A [2] = biological target: T5, human IL-17A; experiment: cell-based or functional assay
human IL-17D = biological target: T10, human IL-17D (human, UniProt Q8TAD2 18-202, limits assumed); experiment: ELISA, plate coated with human IL-17D, anti-Fab HRP detection
T10 sequence (looked up): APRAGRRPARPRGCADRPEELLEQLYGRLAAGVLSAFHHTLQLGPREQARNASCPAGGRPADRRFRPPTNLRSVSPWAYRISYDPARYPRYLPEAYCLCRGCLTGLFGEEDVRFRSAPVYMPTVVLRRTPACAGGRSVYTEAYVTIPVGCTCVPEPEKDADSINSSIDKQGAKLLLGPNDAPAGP
Protocol: as §1

mouse TNFα = biological target: T11, mouse TNFα (mouse, UniProt P06804 80-235); experiment: ELISA, plate coated with mouse TNFα, anti-Fab HRP detection
T11 sequence (looked up): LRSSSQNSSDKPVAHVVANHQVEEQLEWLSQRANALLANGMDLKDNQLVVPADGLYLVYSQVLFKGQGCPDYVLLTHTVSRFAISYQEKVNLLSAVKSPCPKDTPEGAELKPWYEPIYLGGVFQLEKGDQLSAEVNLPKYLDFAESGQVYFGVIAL

binding result (human IL-17B): no binding (tested: 0,5 ng/ml) | binding result (guinea pig TNFα): no binding (tested: 2 ng/ml) | Kd (human IL-17F): ~4000 pM | binding result (human IL-17E): no binding (tested: 0,5 ng/ml) | Kd (human IL-17A [1]): < 1 pM | binding result (rabbit TNFα): no binding (tested: 2 ng/ml) | Kd (cynomolgus IL-17A): ~1 pM | Kd (TNFα multta): ~1 pM | binding result (human IL-17C): no binding (tested: 0,5 ng/ml) | IC50, IL-17A and TNFα induced IL-6 production, HT1080 cells (human IL-17A [2]): 0.02 µg/mL | IC50, IL-17A-dependent IL-6 production, HT1080 cells (human IL-17A [2]): 0.0035 µg/mL | binding result (human IL-17D): no binding (tested: 0,5 ng/ml) | binding result (mouse TNFα): no binding (tested: 2 ng/ml)
B1: BCD-121 tri-specific anti-IL-17A/anti-IL-17F/anti-TNFα antibody (bispecific antibody, human IgG1, kappa, L234A L235A)
heavy: not shown
light: EVQLVQSGGGLVQAGGSLRLSCAASGGTFATSPMGWLRQAPGKGTEFVAAISPSGGDRIYADSVKGRFTISRDNAGNFIYLQMNSLKPEDTAVYYCAVRRRFDGTSYYTGDYDSWGQGTLVTVSSGGGSGGGSEGAGSDIQMTQSPSSLSASVGDRVTITCKASQNVGTNVAWYQQKPGKAPKALIYSASFLYSGVPYRFSGSGSGTDFTLTISSLQPEDFATYYCQQYNIFPLTFGQGTKVEIKRTVAAPSVFIFPPSDEQLKSGTASVVCLLNNFYPREAKVQWKVDNALQSGNSQESVTEQDSKDSTYSLSSTLTLSKADYEKHKVYACEVTHQGLSSPVTKSFNRGEC
notes: also called Mab12; VHH-IgG1 (LALA)
